Laboratory results: patent US20090155255A1 (Biogen, published 2009)

Key:
[1] = target: T1, soluble CD23 antigen (soluble and monomeric form) (UniProt P06734 150-321, limits assumed); assay: solution-phase competition Biacore, free CD23 read on an immobilised p5E8 chip; average of three titrations
T1 construct: also called free CD23
T1 sequence (looked up): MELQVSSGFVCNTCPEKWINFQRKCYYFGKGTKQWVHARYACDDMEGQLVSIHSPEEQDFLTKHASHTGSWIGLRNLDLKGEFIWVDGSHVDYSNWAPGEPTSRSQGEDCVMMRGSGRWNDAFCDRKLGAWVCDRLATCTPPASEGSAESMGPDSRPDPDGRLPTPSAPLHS
Protocol: In this experiment, the concentration of free CD23 (soluble and monomeric form) in solution is determined by the initial rate of binding to a CM5 Biacore chip containing immobilized p5E8 MAb. Into these CD23 solutions were titrated the p5E8 Fab prepared by papain digestion (one potential binding site), p5E8 MAb (two potential binding sites), and the C-terminal anti-CD23 tetravalent antibody (four potential binding sites). The p5E8 Fab, MAb, and tetravalent antibody are the ligands and CD23 is the analyte being tested.
P5E8 was immobilized to 20247 RUs on a CM5 sensor chip. CD23 and CD23 plus antibody were flowed over the sensor chip at a 10 μl/min for 3 minutes. Initial binding rates were obtained from a fit to the initial linear portion of the raw sensorgram data (FIG. 23A). The N (stoichiometry) values were determined by plotting the antibody concentration against the initial rate, Vᵢ, obtained at each concentration (FIG. 23B). […] Three experiments measured the initial rates of binding of free CD23 to the p5E8 sensor chip (concentrations for CD23 ranged from 0.15 to 15 nM) in the presence of constant concentrations of antibody of 1, 2.5 and 10 nM. […] The calculated stoichiometries correspond to binding of CD23 antigen to all four available antigen binding sites for the C-terminal tetravalent p5E8.

[2] = target: T1, soluble CD23 antigen (soluble and …); assay: isothermal titration calorimetry, average over temperatures
Protocol: Isothermal titration calorimetry (ITC) accurately measures the thermodynamics of protein-protein interactions and can further provide the stoichiometry of the experimental complex. CD23, C-terminal tetravalent p5E8, p5E8 IgG and p5E8 Fab were extensively dialyzed for 12 hours against PBS. ITC experiments were performed on an iTC200 microcalorimeter (MicroCal LLC, Northampton, Mass.). After degassing, 25×1.5 μl aliquots of 100 μM CD23 were injected at 5 minute intervals into the 350-μl sample cell containing 5 μM solutions of antibody/Fab. Raw data were then integrated and fitted using a nonlinear least squares routine in ITC data analysis software ORIGIN (MicroCal LLC, Northampton, Mass.). The fitting generated values for the independent variables ΔH⁰ (binding enthalpy), N (the stoichiometry), and Kb (binding constant). For each antibody/Fab, ITC experiments were performed at 5° C., 15° C., 25° C., and 37° C. in order to determine the temperature dependence on the binding heats and to optimize the experiments to obtain better signal to noise.
The CD23 in the syringe and the antibody in the sample cell are both monomers in solution. On fitting the data, N values approximating 1, 2, and 4 would indicate binding of all available antigen binding sites for the p5E8 Fab, p5E8 IgG and the C-terminal tetravalent p5E8, respectively. […]

N (stoichiometry, CD23 molecules bound per antibody) [1]: 1.05
Avg. N (stoichiometry) [2]: 0.99
B1: PRIMATIZED p5E8 Fab (Fab, V domains shown)
VH: EVQLVESGGGLAKPGGSLRLSCAASGFRFTFNNYYMDWVRQAPGQGLEWVSRISSSGDPTWYADSVKGRFTISRENAKNTLFLQMNSLRAEDTAVYYCASLTTGSDSWGQGVLVTVSS
VL: DIQMTQSPSSLSASVGDRVTITCRASQDIRYYLNWYQQKPGKAPKLLIYVASSLQSGVPSRFSGSGSGTEFTLTVSSLQPEDFATYYCLQVYSTPRTFGQGTKVEIKR
notes: domain: CH1
